This passage reports IgG1 concentration above which the peptide is displaced results from patent US20190328889A1.

The target of test [1] is Fc receptors on U937 cells (human; IFNγ-activated or non-activated) (human). Kind of test: flow cytometry competition on IFNγ-activated U937 cells; competitor 1 µM BDB; Nip228 at 0.001-5 µM. (In general: A flow cytometer gives signals particle by particle.)
Test [2] shares this target. Kind of test: flow cytometry competition on IFNγ-activated U937 cells; competitor 1 µM cp33; Nip228 at 0.001-5 µM.

Turning to “control monoclonal human IgG1 (Nip228, MedImmune Ltd), unlabelled (antibody)”, the IgG1 concentration above which the peptide is displaced in test [1] and in test [2] was 10 nM in each case.
